# Source: PMC10786891, “Massively parallel profiling of RNA-targeting CRISPR-Cas13d”
# T1: EsCas13d, nuclease-dead (Eubacterium siraeum, UniProt B0MS50, R295A;H300A;R849A;H854A)
# T1 sequence: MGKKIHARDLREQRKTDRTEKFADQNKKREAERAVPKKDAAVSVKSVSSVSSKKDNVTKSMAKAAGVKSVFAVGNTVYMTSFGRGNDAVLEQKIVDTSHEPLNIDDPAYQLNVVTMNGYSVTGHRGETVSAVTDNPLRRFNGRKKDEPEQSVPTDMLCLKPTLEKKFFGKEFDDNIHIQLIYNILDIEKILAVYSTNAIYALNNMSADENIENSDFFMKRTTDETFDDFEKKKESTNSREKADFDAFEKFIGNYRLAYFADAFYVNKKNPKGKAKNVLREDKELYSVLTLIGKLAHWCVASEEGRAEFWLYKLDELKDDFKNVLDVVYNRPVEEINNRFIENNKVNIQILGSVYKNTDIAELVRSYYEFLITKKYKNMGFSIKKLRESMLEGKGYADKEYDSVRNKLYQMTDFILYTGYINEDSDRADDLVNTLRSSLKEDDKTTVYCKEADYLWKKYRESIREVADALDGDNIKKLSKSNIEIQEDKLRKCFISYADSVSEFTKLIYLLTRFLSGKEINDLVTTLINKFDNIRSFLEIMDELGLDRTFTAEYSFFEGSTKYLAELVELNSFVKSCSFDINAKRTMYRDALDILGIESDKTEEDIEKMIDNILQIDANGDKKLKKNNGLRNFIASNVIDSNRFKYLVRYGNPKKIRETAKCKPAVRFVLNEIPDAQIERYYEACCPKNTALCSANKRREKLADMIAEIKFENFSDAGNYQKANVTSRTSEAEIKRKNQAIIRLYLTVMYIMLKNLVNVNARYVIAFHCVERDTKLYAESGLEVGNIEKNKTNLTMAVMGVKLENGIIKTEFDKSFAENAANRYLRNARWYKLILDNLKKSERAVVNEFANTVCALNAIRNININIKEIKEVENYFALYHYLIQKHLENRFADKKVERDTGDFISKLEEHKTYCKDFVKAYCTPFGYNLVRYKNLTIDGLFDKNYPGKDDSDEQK
# Biological target: T1, EsCas13d, nuclease-dead
# Experiment: crRNA (strand 1, pre-loaded); Mg2+; 40 mM Tris-HCl pH 7.5, 150 mM NaCl, 6 mM MgCl2, 1 mM DTT, 0.1% Tween-20, 0.2 mg/ml BSA; 25 C; 10 min per concentration, then washed
# Conditions: tags: His6-TwinStrep-SUMO cleaved; N-terminal SNAP kept (SNAP-Surface 488); label: 3' end held by stalled T7 RNA polymerase
row,Binder,Kd
1,"target 1 insA 3' of 22,insA 3' of 5 (mixed) RNA 1: CACCCGUGCAAAAAUGCAGGGGUCUAAAACUGAGCGGAUAACCUCUCUAUGG RNA 2: GGGAAUGGAUCCACAUCUACGAAUUCGUACACAUAGAGAGGUUAUCCGACUCACCGAGAUCGGAAGAGCACACGU",7.2 ± 0.6 nM
2,"target 1 insG 3' of 16,insC 3' of 10 (mixed) RNA 1: CACCCGUGCAAAAAUGCAGGGGUCUAAAACUGAGCGGAUAACCUCUCUAUGG RNA 2: GGGAAUGGAUCCACAUCUACGAAUUCGUACCAUAGAGGAGGUUCAUCCGCUCACCGAGAUCGGAAGAGCACACGU",40 ± 9 nM
3,"target 1 insC 3' of 3,insU 3' of 2 (mixed) RNA 1: CACCCGUGCAAAAAUGCAGGGGUCUAAAACUGAGCGGAUAACCUCUCUAUGG RNA 2: GGGAAUGGAUCCACAUCUACGAAUUCGUACCAUAGAGAGGUUAUCCGCUCCUACCGAGAUCGGAAGAGCACACGU",37 ± 5 nM
4,"target 1 insC 3' of 13,insU 3' of 2 (mixed) RNA 1: CACCCGUGCAAAAAUGCAGGGGUCUAAAACUGAGCGGAUAACCUCUCUAUGG RNA 2: GGGAAUGGAUCCACAUCUACGAAUUCGUACCAUAGAGAGCGUUAUCCGCUCUACCGAGAUCGGAAGAGCACACGU",14.4 ± 1.3 nM
5,"target 1 insA 3' of 21,insU 3' of 21 (mixed) RNA 1: CACCCGUGCAAAAAUGCAGGGGUCUAAAACUGAGCGGAUAACCUCUCUAUGG RNA 2: GGGAAUGGAUCCACAUCUACGAAUUCGUACCAUAUAGAGAGGUUAUCCGCUCACCGAGAUCGGAAGAGCACACGU",9.1 ± 0.5 nM
6,"target 1 U8A,U10G (mixed) RNA 1: CACCCGUGCAAAAAUGCAGGGGUCUAAAACUGAGCGGAUAACCUCUCUAUGG RNA 2: GGGAAUGGAUCCACAUCUACGAAUUCGUACCAUAGAGAGGUGAACCGCUCACCGAGAUCGGAAGAGCACACGU",18.2 ± 0.8 nM
7,"target 1 insA 3' of 19,insC 3' of 1 (mixed) RNA 1: CACCCGUGCAAAAAUGCAGGGGUCUAAAACUGAGCGGAUAACCUCUCUAUGG RNA 2: GGGAAUGGAUCCACAUCUACGAAUUCGUACCAUAAGAGAGGUUAUCCGCUCACCCGAGAUCGGAAGAGCACACGU",18.6 ± 2.4 nM
8,"target 1 A16G,U19C (mixed) RNA 1: CACCCGUGCAAAAAUGCAGGGGUCUAAAACUGAGCGGAUAACCUCUCUAUGG RNA 2: GGGAAUGGAUCCACAUCUACGAAUUCGUACCACAGGGAGGUUAUCCGCUCACCGAGAUCGGAAGAGCACACGU",78 ± 33 nM
9,"target 1 insG 3' of 18,insC 3' of 3 (mixed) RNA 1: CACCCGUGCAAAAAUGCAGGGGUCUAAAACUGAGCGGAUAACCUCUCUAUGG RNA 2: GGGAAUGGAUCCACAUCUACGAAUUCGUACCAUAGGAGAGGUUAUCCGCUCCACCGAGAUCGGAAGAGCACACGU",80 ± 9 nM
10,"target 1 A9U,G12C (mixed) RNA 1: CACCCGUGCAAAAAUGCAGGGGUCUAAAACUGAGCGGAUAACCUCUCUAUGG RNA 2: GGGAAUGGAUCCACAUCUACGAAUUCGUACCAUAGAGAGCUUUUCCGCUCACCGAGAUCGGAAGAGCACACGU",~46 nM
11,"target 1 C7U,A9C (mixed) RNA 1: CACCCGUGCAAAAAUGCAGGGGUCUAAAACUGAGCGGAUAACCUCUCUAUGG RNA 2: GGGAAUGGAUCCACAUCUACGAAUUCGUACCAUAGAGAGGUUCUUCGCUCACCGAGAUCGGAAGAGCACACGU",8.9 ± 0.4 nM
12,"target 1 U8A,U10A (mixed) RNA 1: CACCCGUGCAAAAAUGCAGGGGUCUAAAACUGAGCGGAUAACCUCUCUAUGG RNA 2: GGGAAUGGAUCCACAUCUACGAAUUCGUACCAUAGAGAGGUAAACCGCUCACCGAGAUCGGAAGAGCACACGU",12.5 ± 0.7 nM
13,"target 1 insU 3' of 18,insA 3' of 15 (mixed) RNA 1: CACCCGUGCAAAAAUGCAGGGGUCUAAAACUGAGCGGAUAACCUCUCUAUGG RNA 2: GGGAAUGGAUCCACAUCUACGAAUUCGUACCAUAUGAGAAGGUUAUCCGCUCACCGAGAUCGGAAGAGCACACGU",20.5 ± 2.5 nM
14,"target 1 insG 3' of 16,insG 3' of 14 (mixed) RNA 1: CACCCGUGCAAAAAUGCAGGGGUCUAAAACUGAGCGGAUAACCUCUCUAUGG RNA 2: GGGAAUGGAUCCACAUCUACGAAUUCGUACCAUAGAGGAGGGUUAUCCGCUCACCGAGAUCGGAAGAGCACACGU",15.6 ± 1.3 nM
15,"target 1 C4U,G5A (mixed) RNA 1: CACCCGUGCAAAAAUGCAGGGGUCUAAAACUGAGCGGAUAACCUCUCUAUGG RNA 2: GGGAAUGGAUCCACAUCUACGAAUUCGUACCAUAGAGAGGUUAUCCAUUCACCGAGAUCGGAAGAGCACACGU",14.2 ± 1.5 nM
16,"target 1 insA 3' of 19,insA 3' of 2 (mixed) RNA 1: CACCCGUGCAAAAAUGCAGGGGUCUAAAACUGAGCGGAUAACCUCUCUAUGG RNA 2: GGGAAUGGAUCCACAUCUACGAAUUCGUACCAUAAGAGAGGUUAUCCGCUCAACCGAGAUCGGAAGAGCACACGU",19.9 ± 2.1 nM
17,"target 1 insA 3' of 22,insG 3' of 21 (mixed) RNA 1: CACCCGUGCAAAAAUGCAGGGGUCUAAAACUGAGCGGAUAACCUCUCUAUGG RNA 2: GGGAAUGGAUCCACAUCUACGAAUUCGUACACGAUAGAGAGGUUAUCCGCUCACCGAGAUCGGAAGAGCACACGU",43 ± 6 nM
18,"target 1 insC 3' of 17,insG 3' of 9 (mixed) RNA 1: CACCCGUGCAAAAAUGCAGGGGUCUAAAACUGAGCGGAUAACCUCUCUAUGG RNA 2: GGGAAUGGAUCCACAUCUACGAAUUCGUACCAUAGCAGAGGUUAGUCCGCUCACCGAGAUCGGAAGAGCACACGU",35 ± 6 nM
19,"target 1 G5U,G15C (mixed) RNA 1: CACCCGUGCAAAAAUGCAGGGGUCUAAAACUGAGCGGAUAACCUCUCUAUGG RNA 2: GGGAAUGGAUCCACAUCUACGAAUUCGUACCAUAGACAGGUUAUCCUCUCACCGAGAUCGGAAGAGCACACGU",46 ± 9 nM
20,"target 1 insA 3' of 21,insG 3' of 7 (mixed) RNA 1: CACCCGUGCAAAAAUGCAGGGGUCUAAAACUGAGCGGAUAACCUCUCUAUGG RNA 2: GGGAAUGGAUCCACAUCUACGAAUUCGUACCAAUAGAGAGGUUAUCGCGCUCACCGAGAUCGGAAGAGCACACGU",14.9 ± 0.6 nM
21,"target 1 insA 3' of 15,insC 3' of 15 (mixed) RNA 1: CACCCGUGCAAAAAUGCAGGGGUCUAAAACUGAGCGGAUAACCUCUCUAUGG RNA 2: GGGAAUGGAUCCACAUCUACGAAUUCGUACCAUAGAGACAGGUUAUCCGCUCACCGAGAUCGGAAGAGCACACGU",20.4 ± 1.6 nM
22,"target 1 G5U,G17U (mixed) RNA 1: CACCCGUGCAAAAAUGCAGGGGUCUAAAACUGAGCGGAUAACCUCUCUAUGG RNA 2: GGGAAUGGAUCCACAUCUACGAAUUCGUACCAUAUAGAGGUUAUCCUCUCACCGAGAUCGGAAGAGCACACGU",62 ± 8 nM
23,"target 1 insA 3' of 19,insG 3' of 1 (mixed) RNA 1: CACCCGUGCAAAAAUGCAGGGGUCUAAAACUGAGCGGAUAACCUCUCUAUGG RNA 2: GGGAAUGGAUCCACAUCUACGAAUUCGUACCAUAAGAGAGGUUAUCCGCUCAGCCGAGAUCGGAAGAGCACACGU",20 ± 1.3 nM
24,"target 1 insU 3' of 20,insC 3' of 5 (mixed) RNA 1: CACCCGUGCAAAAAUGCAGGGGUCUAAAACUGAGCGGAUAACCUCUCUAUGG RNA 2: GGGAAUGGAUCCACAUCUACGAAUUCGUACCAUUAGAGAGGUUAUCCGCCUCACCGAGAUCGGAAGAGCACACGU",36 ± 10 nM
25,"target 1 del13,del15 (mixed) RNA 1: CACCCGUGCAAAAAUGCAGGGGUCUAAAACUGAGCGGAUAACCUCUCUAUGG RNA 2: GGGAAUGGAUCCACAUCUACGAAUUCGUACCAUAGAAGUUAUCCGCUCACCGAGAUCGGAAGAGCACACGU",30 ± 5 nM
26,"target 1 U3G,U10G (mixed) RNA 1: CACCCGUGCAAAAAUGCAGGGGUCUAAAACUGAGCGGAUAACCUCUCUAUGG RNA 2: GGGAAUGGAUCCACAUCUACGAAUUCGUACCAUAGAGAGGUGAUCCGCGCACCGAGAUCGGAAGAGCACACGU",35.2 ± 2.9 nM
27,"target 1 insC 3' of 14,insA 3' of 6 (mixed) RNA 1: CACCCGUGCAAAAAUGCAGGGGUCUAAAACUGAGCGGAUAACCUCUCUAUGG RNA 2: GGGAAUGGAUCCACAUCUACGAAUUCGUACCAUAGAGACGGUUAUCCAGCUCACCGAGAUCGGAAGAGCACACGU",56 ± 12 nM
28,"target 1 U19C,C22G (mixed) RNA 1: CACCCGUGCAAAAAUGCAGGGGUCUAAAACUGAGCGGAUAACCUCUCUAUGG RNA 2: GGGAAUGGAUCCACAUCUACGAAUUCGUAGCACAGAGAGGUUAUCCGCUCACCGAGAUCGGAAGAGCACACGU",~80 nM
